# Measurements: article PMC6769508, “Cooperative Binding of KaiB to the KaiC Hexamer Ensures Accurate Circadian Clock Oscillation in Cyanobacteria” (International Journal of Molecular Sciences, 2019)
# Residue numbers refer to the chain shown, from its start. “And” between values parts separate entries of the source, which are not always exact repeats. Equal entries are not always repeated.
# B1: TeKaiB, wild-type T. elongatus KaiB (natural protein, Thermosynechococcus elongatus, UniProt Q79V61 1-108, looked up)
# chain: MAPLRKTYVLKLYVAGNTPNSVRALKTLNNILEKEFKGVYALKVIDVLKNPQLAEEDKILATPTLAKVLPPPVRRIIGDLSNREKVLIGLDLLYEEIGDQAEDDLGLE
# notes: KaiB, Thermosynechococcus elongatus (strain BP-1), wild type; source: E. coli, GST-tagged, purified after cleavage of the GST-tag
# B2: TeKaiBDD, TeKaiB with the DD mutation (Arg23 and Lys26 to aspartate) (natural protein, Thermosynechococcus elongatus, UniProt Q79V61 1-108, looked up)
# chain: B1 chain with R23D, K26D
# notes: KaiB, Thermosynechococcus elongatus (strain BP-1), Arg23 and Lys26 substituted with aspartate; Named only in the SEC methods; source: E. coli, GST-tagged, purified after cleavage of the GST-tag
# B3: TeKaiB_(10–108), N-terminal truncated mutant of T. elongatus KaiB (domain or fragment, Thermosynechococcus elongatus, UniProt Q79V61 10-108, looked up)
# chain: LKLYVAGNTPNSVRALKTLNNILEKEFKGVYALKVIDVLKNPQLAEEDKILATPTLAKVLPPPVRRIIGDLSNREKVLIGLDLLYEEIGDQAEDDLGLE
# notes: KaiB, Thermosynechococcus elongatus (strain BP-1), residues 10-108 (N-terminal segment deleted); source: E. coli, GST-tagged, purified after cleavage of the GST-tag
# B4: TeKaiB_(10–108/DD), TeKaiB_(10–108) with Arg23 and Lys26 replaced with aspartate (domain or fragment, Thermosynechococcus elongatus, UniProt Q79V61 10-108, looked up)
# chain: B3 chain with R14D, K17D
# notes: KaiB, Thermosynechococcus elongatus (strain BP-1), residues 10-108, Arg23 and Lys26 substituted with aspartate; source: E. coli, GST-tagged, purified after cleavage of the GST-tag
# B5: TeKaiCDD, T. elongatus KaiC mutant with Ser431 and Thr432 substituted by aspartate residues (natural protein, Thermosynechococcus elongatus, UniProt Q79V60 1-518, looked up)
# chain: MTNLPEHQSSPTEQSSAEVKKIPTMIEGFDDISHGGLPQGRTTLVSGTSGTGKTLFAVQFLYNGITIFNEPGIFVTFEESPQDIIKNALSFGWNLQSLIDQGKLFILDASPDPDGQEVAGDFDLSALIERIQYAIRKYKATRVSIDSVTAVFQQYDAASVVRREIFRLAFRLKQLGVTTIMTTERVDEYGPVARFGVEEFVSDNVVILRNVLEGERRRRTVEILKLRGTTHMKGEYPFTINNGINIFPLGAMRLTQRSSNVRVSSGVKTLDEMCGGGFFKDSIILATGATGTGKTLLVSKFLETGCQQGERALLFAYEESRAQLSRNASSWGIDFEELERRGLLRIICAYPESAGLEDHLQIIKSEIADFKPSRVAIDSLSALARGVSNNAFRQFVIGVTGFAKQEEITGFFTNTTDQFMGSNSITESHIDDITDTILLLQYVEIRGEMSRAINVFKMRGSWHDKGIREYVITEKGAEIRDSFRNFEGIISGTPTRISVDEKTELARIAKGMQDLESE
# notes: KaiC, Thermosynechococcus elongatus (strain BP-1), Ser431 and Thr432 substituted by aspartate (mimics the fully phosphorylated form); Seen as a homohexamer by native MS; also called TeKaiCDD homohexamer; source: E. coli, GST-tagged, purified after cleavage of the GST-tag
# How the values were obtained:
# [1] = target: the molecule itself; assay: SEC; Superdex 200 increase; 20 mM Tris-HCl (pH 8.0), 150 mM NaCl, 5 mM MgCl2, 0.5 mM EDTA, 1 mM DTT; TeKaiB or TeKaiBDD in the absence of KaiC
# [2] = target: B5; assay: native MS; TeKaiCDD (20 µM) titrated with KaiB or SasA proteins, incubated at 37 °C for 6 h, buffer-exchanged into 150 mM ammonium acetate, pH 6.8; nanoflow ESI; details: both partners purified
# [3] = target: the molecule itself; assay: as above
stoichiometry N [2],Binder,stoichiometry N [1],other results
,B1,4,
,B2,4,
6 binder chains per KaiC hexamer,B3,,
1 binder chains per KaiC hexamer and 3 binder chains per KaiC hexamer and 2 binder chains per KaiC hexamer,B4,,
,B5,,stoichiometry N [3]: 6
